Measurements: patent US20210087286A1 (Amgen, published 2021)
Where a chain is given by its changes, count along the chain named. Blank lines part the entries; values can stand above or below the binder they belong to.

Assays:
human GIPR = target: T1, human GIPR (human, UniProt P48546 22-466); test: cell-based or functional assay
T1 sequence: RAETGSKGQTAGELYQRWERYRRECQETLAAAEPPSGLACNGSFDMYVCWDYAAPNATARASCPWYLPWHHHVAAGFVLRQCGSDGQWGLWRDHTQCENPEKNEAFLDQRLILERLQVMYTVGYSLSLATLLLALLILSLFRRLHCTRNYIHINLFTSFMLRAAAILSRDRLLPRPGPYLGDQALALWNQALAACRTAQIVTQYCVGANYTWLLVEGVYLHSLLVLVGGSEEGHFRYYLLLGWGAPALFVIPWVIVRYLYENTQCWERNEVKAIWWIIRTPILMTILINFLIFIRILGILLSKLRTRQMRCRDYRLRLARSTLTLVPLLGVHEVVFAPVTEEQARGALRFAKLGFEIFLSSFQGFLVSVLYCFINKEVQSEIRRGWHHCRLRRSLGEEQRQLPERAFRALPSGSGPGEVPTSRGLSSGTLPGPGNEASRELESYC

huGIPR ECD = target: T2, huGIPR ECD (human, UniProt P48546 21-129, limits assumed); test: SPR (Biacore T200), mAb captured via goat anti-huFc, 200 nM huGIPR ECD analyte
T2 construct: Soluble analyte of the Biacore assay; also called human GIPR extracellular domain
T2 sequence: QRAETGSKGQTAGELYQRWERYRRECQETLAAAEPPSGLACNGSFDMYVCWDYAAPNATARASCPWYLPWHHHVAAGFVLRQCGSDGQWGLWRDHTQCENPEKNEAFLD
Experimental: Immobilization of Goat-anti-huFc antibody to a S-CM5 sensor chip surface was performed according to manufacturer's instructions. The Biacore instrument running buffer is 0.005% P20/PBS 1×, pH7.4, no calcium chloride, no magnesium chloride. Briefly, carboxyl groups on the sensor chip surfaces were activated by injecting 60 μL of a mixture containing 0.2 M N-ethyl-N′-(dimethylaminopropyl) carbodiimide (EDC) and 0.05 M N-hydroxysuccinimide (NHS). Goat-anti-huFc antibody was diluted in 10 mM sodium acetate, pH 4.0 at 20 μg/ml and injected over the activated chip surface at 30 uL/min for 6 minutes. Excess reactive groups on the surfaces were deactivated by injecting 60 μL of 1 M ethanolamine. Final immobilized level was ˜8000 resonance units (RU).
Binding assays were carried out on the immobilized goat anti-huFc antibody surface by Biacore T200. The experiment was performed at 25° C. The instrument running buffer was 0.005% P20/PBS. The goat anti-huFc capture antibody was covalently attached to the sensor chip surface via standard amine coupling to flow cells channel 1-4. The anti-huGIPR antibodies were diluted in sample buffer (0.1 mg/ml BSA, 0.005% P20, PBS) to ˜10 nM then captured to flow cells channel 2, 3, 4. Flow cell channel 1 was as a blank reference surface without injection of anti-huGIPR antibody. The captured antibody response range was ˜250 RU. Then 200 nM huGIPR ECD was injected over the goat anti-huFc antibody captured anti-huGIPR antibody surfaces at flow rate 50 ul/min for 3 minutes. After a 10 minutes dissociation, each surface was regenerated by injecting 10 mM Glycine, pH 1.5 for 30 seconds twice.

B1: 2G10.316 (antibody, human IgG1, kappa, N297G, V domains shown)
VH: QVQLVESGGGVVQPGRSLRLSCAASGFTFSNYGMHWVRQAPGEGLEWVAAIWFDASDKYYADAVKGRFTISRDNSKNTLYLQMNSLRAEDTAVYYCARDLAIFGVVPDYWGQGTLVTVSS
VL: EIVMTQSPATLSVSPGERATLSCRASQSVFRHLAWYQQKPGQAPRLLIYEAATRATGIPARFSGSGSGTEFTLTISSLQSEDFAVYYCQQYQNWPLTFGGGTKVEIKR
notes: also called SS-26193
cAMP IC50 (human GIPR): 14.7 nM
koff (huGIPR ECD): < 5e-05 s⁻¹

B2: 2G10.305 (antibody, human IgG1, kappa, N297G, V domains shown)
VH: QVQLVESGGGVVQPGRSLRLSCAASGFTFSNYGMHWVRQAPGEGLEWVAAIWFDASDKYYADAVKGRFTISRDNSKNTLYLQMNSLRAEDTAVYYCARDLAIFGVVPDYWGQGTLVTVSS
VL: B1 VL with F30D, R31V, H32N, E50N
notes: also called SS-26182
cAMP IC50 (human GIPR): 27.2 nM
koff (huGIPR ECD): < 5e-05 s⁻¹

B3: 2G10.329 (antibody, human IgG1, kappa, N297G, V domains shown)
VH: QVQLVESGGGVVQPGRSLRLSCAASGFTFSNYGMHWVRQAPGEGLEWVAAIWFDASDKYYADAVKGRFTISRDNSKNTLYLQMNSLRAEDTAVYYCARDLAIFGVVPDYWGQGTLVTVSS
VL: B1 VL with F30E, R31Q, Q92N
notes: also called SS-26206
cAMP IC50 (human GIPR): 26.8 nM
koff (huGIPR ECD): 6e-05 s⁻¹

B5: 2G10.324 (antibody, human IgG1, kappa, N297G, V domains shown)
VH: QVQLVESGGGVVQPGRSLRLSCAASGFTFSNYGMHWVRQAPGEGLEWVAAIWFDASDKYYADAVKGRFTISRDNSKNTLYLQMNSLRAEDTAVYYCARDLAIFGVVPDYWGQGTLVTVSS
VL: B1 VL with F30L, R31S
cAMP IC50 (human GIPR): 14.1 nM
koff (huGIPR ECD): < 5e-05 s⁻¹

B8: 2G10.337 (antibody, human IgG1, kappa, N297G, V domains shown)
VH: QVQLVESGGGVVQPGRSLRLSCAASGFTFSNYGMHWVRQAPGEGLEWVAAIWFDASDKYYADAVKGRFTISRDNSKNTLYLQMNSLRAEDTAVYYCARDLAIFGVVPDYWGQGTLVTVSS
VL: B1 VL with F30D, R31V, H32N, Q92N, N93Q
notes: also called SS-26214
cAMP IC50 (human GIPR): 32.5 nM
koff (huGIPR ECD): < 5e-05 s⁻¹

B11: 2G10.317 (antibody, human IgG1, kappa, N297G, V domains shown)
VH: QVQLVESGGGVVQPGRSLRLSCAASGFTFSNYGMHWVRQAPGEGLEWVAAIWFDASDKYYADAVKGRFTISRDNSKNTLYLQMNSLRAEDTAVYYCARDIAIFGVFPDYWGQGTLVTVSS
VL: B1 VL with F30N, N93Q
notes: also called SS-26194
cAMP IC50 (human GIPR): 13.7 nM
koff (huGIPR ECD): < 5e-05 s⁻¹

B13: 2G10.323 (antibody, human IgG1, kappa, N297G, V domains shown)
VH: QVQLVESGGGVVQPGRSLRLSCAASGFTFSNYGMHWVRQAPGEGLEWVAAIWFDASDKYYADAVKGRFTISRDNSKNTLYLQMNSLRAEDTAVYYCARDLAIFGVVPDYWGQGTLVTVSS
VL: B1 VL with F30H
cAMP IC50 (human GIPR): 17.4 nM
koff (huGIPR ECD): < 5e-05 s⁻¹

B14: 2G10.318 (antibody, human IgG1, kappa, N297G, V domains shown)
VH: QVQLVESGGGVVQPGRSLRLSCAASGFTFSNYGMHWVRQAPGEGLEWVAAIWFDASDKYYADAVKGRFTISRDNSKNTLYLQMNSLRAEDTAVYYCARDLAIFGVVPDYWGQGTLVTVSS
VL: B1 VL with F30L, R31S, Q92N
cAMP IC50 (human GIPR): 20.9 nM
koff (huGIPR ECD): < 5e-05 s⁻¹

B15: 2G10.322 (antibody, human IgG1, kappa, N297G, V domains shown)
VH: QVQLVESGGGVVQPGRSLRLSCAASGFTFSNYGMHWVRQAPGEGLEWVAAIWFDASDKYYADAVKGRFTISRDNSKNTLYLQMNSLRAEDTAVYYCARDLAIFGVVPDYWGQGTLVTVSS
VL: B1 VL with F30M, R31S
cAMP IC50 (human GIPR): 17.9 nM
koff (huGIPR ECD): 6e-05 s⁻¹

B16: 2G10.311 (antibody, human IgG1, kappa, N297G, V domains shown)
VH: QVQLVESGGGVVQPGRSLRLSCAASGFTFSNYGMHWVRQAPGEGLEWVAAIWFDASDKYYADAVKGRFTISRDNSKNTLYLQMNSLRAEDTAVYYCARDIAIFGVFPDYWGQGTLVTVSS
VL: B1 VL with F30N, R31V, E50Q, Q92N, N93Q
notes: also called SS-26188
cAMP IC50 (human GIPR): 14.9 nM
koff (huGIPR ECD): 6e-05 s⁻¹

B18: 2G10.301 (antibody, human IgG1, kappa, N297G, V domains shown)
VH: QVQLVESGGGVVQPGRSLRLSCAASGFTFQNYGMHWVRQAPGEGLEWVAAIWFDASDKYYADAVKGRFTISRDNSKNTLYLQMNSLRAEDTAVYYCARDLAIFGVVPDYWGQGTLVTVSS
VL: B1 VL with R31S
notes: also called SS-26178
cAMP IC50 (human GIPR): 17.6 nM
koff (huGIPR ECD): 7e-05 s⁻¹

Results, then the binder that gave them:

cAMP IC50 (human GIPR): 19.7 nM
koff (huGIPR ECD): 5e-05 s⁻¹
B4: 2G10.331 (antibody, human IgG1, kappa, N297G, V domains shown)
VH: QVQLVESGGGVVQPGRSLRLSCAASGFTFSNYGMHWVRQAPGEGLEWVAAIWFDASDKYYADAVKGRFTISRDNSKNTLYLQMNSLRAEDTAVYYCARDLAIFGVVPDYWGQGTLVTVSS
VL: B1 VL with F30D, R31L
notes: also called SS-26208

cAMP IC50 (human GIPR): 23.4 nM
koff (huGIPR ECD): 8e-05 s⁻¹
B6: 2G10.338 (antibody, human IgG1, kappa, N297G, V domains shown)
VH: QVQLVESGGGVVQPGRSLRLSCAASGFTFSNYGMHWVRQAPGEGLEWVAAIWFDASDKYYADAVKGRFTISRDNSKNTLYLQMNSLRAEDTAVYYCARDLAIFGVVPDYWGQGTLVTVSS
VL: B1 VL with F30H, R31H, Q92N, N93Q

cAMP IC50 (human GIPR): 20.7 nM
koff (huGIPR ECD): < 5e-05 s⁻¹
B7: 2G10.313 (antibody, human IgG1, kappa, N297G, V domains shown)
VH: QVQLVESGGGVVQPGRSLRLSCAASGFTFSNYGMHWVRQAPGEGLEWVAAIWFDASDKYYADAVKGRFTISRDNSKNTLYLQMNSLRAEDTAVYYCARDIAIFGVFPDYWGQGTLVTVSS
VL: B1 VL with F30D, Q92N, N93Q
notes: also called SS-26190

cAMP IC50 (human GIPR): 23.2 nM
koff (huGIPR ECD): < 5e-05 s⁻¹
B9: 2G10.312 (antibody, human IgG1, kappa, N297G, V domains shown)
VH: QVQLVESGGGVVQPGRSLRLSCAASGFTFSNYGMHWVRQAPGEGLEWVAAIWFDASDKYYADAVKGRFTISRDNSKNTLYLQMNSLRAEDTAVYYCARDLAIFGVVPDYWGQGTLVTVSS
VL: B1 VL with R31E, Q92N
notes: also called SS-26189

cAMP IC50 (human GIPR): 17.5 nM
koff (huGIPR ECD): 6e-05 s⁻¹
B10: 2G10.314 (antibody, human IgG1, kappa, N297G, V domains shown)
VH: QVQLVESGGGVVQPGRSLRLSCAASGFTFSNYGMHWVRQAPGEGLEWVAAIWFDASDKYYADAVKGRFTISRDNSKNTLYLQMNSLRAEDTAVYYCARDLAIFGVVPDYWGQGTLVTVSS
VL: B1 VL with F30H, R31S, Q92N
notes: also called SS-26191

cAMP IC50 (human GIPR): 24.7 nM
koff (huGIPR ECD): 7e-05 s⁻¹
B12: 2G10.341 (antibody, human IgG1, kappa, N297G, V domains shown)
VH: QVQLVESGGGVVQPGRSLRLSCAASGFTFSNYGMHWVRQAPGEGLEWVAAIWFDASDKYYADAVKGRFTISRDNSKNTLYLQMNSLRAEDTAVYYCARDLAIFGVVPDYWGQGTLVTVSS
VL: B1 VL with F30D, R31V, Q92N, N93Q

cAMP IC50 (human GIPR): 13.7 nM
koff (huGIPR ECD): 6e-05 s⁻¹
B17: 2G10.334 (antibody, human IgG1, kappa, N297G, V domains shown)
VH: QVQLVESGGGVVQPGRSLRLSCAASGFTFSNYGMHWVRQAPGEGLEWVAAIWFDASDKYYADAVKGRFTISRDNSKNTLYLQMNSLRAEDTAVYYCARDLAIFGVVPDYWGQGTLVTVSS
VL: B1 VL with F30N, R31L, H32N, E50Q, Q92N, N93Q
notes: also called SS-26211

cAMP IC50 (human GIPR): 19.3 nM
koff (huGIPR ECD): < 5e-05 s⁻¹
B19: 2G10.327 (antibody, human IgG1, kappa, N297G, V domains shown)
VH: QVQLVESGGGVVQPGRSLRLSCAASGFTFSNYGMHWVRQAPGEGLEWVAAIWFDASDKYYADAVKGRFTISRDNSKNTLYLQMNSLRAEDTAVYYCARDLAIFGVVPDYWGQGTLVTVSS
VL: B1 VL with F30H, R31S, Q92N, N93Q
